The source of these data is PMC4129656.

This test concerns the target biotinylated E2F-1 peptide symmetrically methylated at R111 and R113. The test is described as follows: BLI. For orientation: BLI is a label-free optical method that tracks binding on a fibre tip over time.

One may read the Kd as the constant that tells how readily two partners part at equilibrium. In turn, “p100-TSN Tudor domain (biolayer interferometry) (from UniProt Q7KZF4 729-787) (domain or fragment)” returned a dissociation constant (Kd) of 12 µM.
